Results taken from the DeepSol protein solubility set.

experiment: soluble on expression in E. coli; label from the status in PepcDB or PDB records

Soluble on expression in E. coli, not soluble:
MGSDKIHHHHHHMIQVLNLTTPETIKNYLHEALGKIEPFEQCILLDYPDHANIGDNLIWLGELLYLHNTRQSQITYNASVENFSVQEMDKCKSSCEIPIFLHGGGNLGDLWLKFQNFREYIISEYKENPIIIFPQSIYFQEEDNLIKAARIFNSHPNLTIFVRDNYSYQLATNYFSNCRIIKSPDAAFQLVNTPGIAAAYQNKSSILYHFRNDKELNLNQAGSPHTLDLPNLIVEDWASYKYESDSYKELPHNAVIQSFARVFHGWEQGKLFPDEWITRQIWKYFHPYTTAFSQSYNPESHRKAWSYMYQGVYQFKQHRLIITNRLHGHILSTLMGIPHIFLPNSYHKNEAFYEAWTYQIPFCRFVKDPEKIADTVRELIEISEIAKN
MGSDKIHHHHHHMIRNCFLCAAKTDNVFSSTWMLPGLAPTEIGFSICPKCGSVCQSPSVSYDDMMTIYSSIAVYTNPGRQGLPSSAKIRDLDEQIQFIKRGIGHLPKSAMQIGSSDGYTLSRFRQAGVELVMGVEPGSTSIEIAKRLYNIDCIHGTAEDFETDKDFELILLTHVLEHIYEPQVTLDKCRKIQNTPGEKFIYVEVPLMATAASLCPGFLTFEHVNYYTKENLICSLTQAGYWPVSVVEHFNSNLSPIIGILASTREQHHYDVMKMDVQLNRKRLSEYRQKELSYWQNCVDCIKVSLQQSQRIFLWGAGIHTCQLLANTDLLDHSRIFGLTDTSSLKWGLRQGEWICQDPQQIDWQVGDTVLISSYASEKEIFDALYWLRDKGVNTLRLHNVDDTRAIV
MGSDKIHHHHHHMIRSLWIAKTGLDAQQMQMDVIANNLANVSTNGFKKTRAVFEDLLYQNIRQPGAQSSQQTQLPSGLQLGTGVRPVATERIHIQGNLQQTGNNKDVAISGEGFFQVLLPDGSTAYTRDGAFQLDNQGQLVTASGFTVQPAIIVPPNALSLTVGRDGTVSVVLPDNPNNAVQIGTFQLATFINPAGLQSRGENLYIETAASGPANINQPGLNGTGLLVHQYLETSNVNVAEELVSMIQTQRAYEINSKAISTSDQMLQRLSQL
MGSDKIHHHHHHMISEYEDIGLHNTCSEDGSFDVVLDSITNIAKYGMGIIAGVFIDMYSIIGNTDSKTIYTVRKGTLADYNARIIARSISGQVINTDPDTVVKMAEEGHMGLVGNEVQVGISYAEFAERLGIYAASCLIAARDQSFRSVLDQYQKGIEFIARNPEVSAEIISRKSNYYDEKTMKRIIGIYRHRLTTLRSDLERSISVYSAVEPSVYRLKILG
MGSDKIHHHHHHMISMKIQQILPADPAKAILIGRIWDPVSQGPRVVSVRGEDVFDLSPGVRTVAELMEYENPLEVVLQRTDAPRWDLAEIVEASQGTDRNRPHLLAPIDLQVVKACGVTFVESMIERVIEERCGGDFTRAAEVRKAVADVLGGSLDSVRPGSEQAREAKRILSAQGMWSQYLEVGLGPDPEVFTKAPVLSSVGYGSGVGIPSFSSWNNPEPELVLILNSAGDPLGATLGNDVNLRDVEGRSALLLGMAKDNNASCAIGPLIRLFHKDFTLESLRTEEITLTVEGTDGYRMEGRNSVARISRSFEELIKAAHGSHHQYPDGFALFTGTLFAPTQDRDTEGLGFTHKNGDIVTISSPQLGTLINQTQSTEETEPWTFGITALFRYLAQTGTGGAPSITGSPVSAAPGKSAGMKIGFRN
MGSDKIHHHHHHMITVNDLSVQFGKRILFQDVNLTFTPGNCYGIIGANGAGKSTMLRVISKQLDPTRGTVTLGPGERLSVLSQDHFAFDENTVMDTVLMGHSVLWAIMEEKNALYAKPDFSDEDGTRVAELEDKFAEMEGWNAESDAAMLLSGLGIKEDLHYMLMKDLSGKQKVRVLLARALYGKPDNLLLDEPTNDLDLETVSWLENYLSNFENTVLVVSHDRHFLDSVCTHTVDIDFGKVQQFSGNYSFWYESSQLALRQQQQQNKKAEEKRKELEEFIRRFSANVAKSKQTTSRKKMLEKLNIEEITPSSRRYPGILFTPGREPGNKILEVKGLTKSIEGQLLFRDLNFNVEKDDKIVFISRDPRAMTALFSIINGEMTPDEGTYEWGQTITTAYLPLDNSGYFNTDLNLVEWLSQFAKDTNEVFLKGFLGRMLFSGEEILKKASVLSGGEKMRCMISKMMMLDANTLVLDTPTNHLDLESIQAFNNTLKTYRGNVLFASHDHEFIQTVANRIIELTPNGIIDKIMDYDDYITDPIVAEMRQKLYGQ
MGSDKIHHHHHHMIVGFAGKLYKNYEKDGIELLKEVTDEALDIAGLNYADVDGIMANIGRGSFHGNRTYLNPPAQISEYFGIKPKIIEHVQYGGPSVLSMIYRAYKAIKAGDAETILCIQGGKISHLRDNHFQKTDIIDSPFDEYIKIYDQMSPISDYAMVAYRHSKLFGTTDEQRARIAVIQRYNASYNPKALFRNPITVEDVLKSRIVSYPLHLLEIVYPIDGFHVFVVSKRSSKSALRNIDILAYGEAHWPNPPAEWDDIIYTPTTESAKRASFDLNRVDAFQLYDSFTITVMLQMEDIGLVEKGKVGQFVESHDLSFKGDVPINTGGGSLNTGQPAYMSGGVILEEALLQLNDMANGHQVKGANVIFLNGIGWWSRRHSVTLVLGERK
MGSDKIHHHHHHMIVLIGGEKGGSGKSCLAQNIAVFLTTECNASVIMVDCDPQRTTSDWIQARNNNPKLASINCVQLYGKIRNDLLSLEQHYDVVIVDCGGQDNLALRATMSVAAYILMPLRPKRRDLKTVCHMDDIVATCKMINPKLRASFVITQCPNLPNQANRILEAKEVCKTYDINVLDAITYCRNVYDDSEESGLSVIEIDPNGKAADEIRTIACELFQVDCAANLEDRLHPALLAQSAGKGQMHNGLTNSGLTNNGLLNNGLLHQTQPTHLNTKQRGQNGTQRPQEKRYAI
MGSDKIHHHHHHMIVTEHSTRPLGEEGLANYVQRLRGQLSLTQKELSFKAGIHIQTIRKIEGGQTNRLNQKAKGGLAAALGIPPEYLDAAAKKVSPETITTLKFCPKCWTPGTTPDQMWTDLRSKYCFACGTALRNRCVSCNEPIMSLKFKFCPYCGANYKQNQTTS
MGSDKIHHHHHHMKDLLTRRFVLNSKEVREGDVFVAVKGKRFDGHDFIDEALRNGAYAIIAERKTVNSDRIFLVESSVDTLAKLAREKLGNFSGTVVGVTGSSGKTTTKEILYNLLKNKRSVFKTPGNMNTEYGLPLSILNDYKGEEILVLEMAASRPGDIAHLCKIAPPDVAVLLNVGSAHLEFFGTRERIMETKMEIIKHSKENAIAVTLFDDPDLRKEVPRYRNTLFFGKEGGDSVLKDWWYYEGSTIAEFEAFDSLFTVKLSGYWNGGQLLNIAASLCVMRTLGETVDIFDLASLKTVPGRFNVREKKGVLIVDDTYNASPEAFQTSIEALLRFPGKKFAVVGAMKELGERSKEFHEELGERLNVLDGVYVFLSEPEAEWIKSKKIILKSDDPEKIAKDLATRVKKGDVVLFKASRAVRIERVLEM
MGSDKIHHHHHHMKEKIVLAPQKGPQEMFLATSADICIYGGAAGGGKTFGLLLEPLRYMNNPDYNATIFRRDYTQVTSPGGLWDSSRKIYRYVKGSRPLKTPKLHWTFKRGASVNFAHLGRDEDCDDWQGSQLTMIGFDELTHFSEYQFFYMLSRNRTDSGVKPYVRATCNPDADSWVAEFISWWINQETGYPIPERSGVIRWMVRLNEVVTWFDSREEAVQGAIENGVKPEQAETMPKSVTFIASTLHDNKILMKNDPGYLANLQAMTLVQRERLLHGNWKIKAAAGLMFKRVKVNMLEEIPPDVIKWARGWDLAATSEDEKGDPAYTAGVLIGKRRNGRYIVADVINRRLSSSDVREIIKQTCIADRAKYGRVATRLPQDPGQAGKDQAQSFMKLLAGFTVKCIQESGDKVTRAEPFSAQWLGLEGMDKGNVDVLIAPWNEEYFNECENFPQSKFKDMVDASSSAFTELESGATYSAPPKDSQLGKSSYWNK
MGSDKIHHHHHHMKEVKIGKDKISVALCTYNGEKFIREQLRSIVGQTILPWQIVVCDDQSTDRTMDIVREFADDYPSIRWMIIRNEVRLGVRRNFEKAIALAEGDYIAPSDQDDIWERNKLEILLHIMREKKVSLVHSNIRYVDVKGREMTERLDFPCSVPLATYLYGLNNVMGCTCLFCASLKDILFPFPIHYYYHDQWLAIMAYHNGGIYLCDHKLVRYRQHADNVVSAICGGGKREGEELGLSYFVGKAEDIYLLLHRRKQIKYSQKDWWRLAWLYVSNRLGLAWLKFKLL
MGSDKIHHHHHHMKEYRIRPREANLSFLEDLDEEQRRAVVESEGRCIVIAGPGSGKTRVITYKIAYLLANGVDPSRILLVTFTRAAAREMVERAKAVTGRELSEMLAGTFHHVCNHFLRKYAPYVGLERNYSILDREDAESLMRHARSKYLERKSKEERKNFPQPSVLMAIYSYMKNTLKSLRESIVVKNPKFLDLKEEISEIFDLYEQEKRSQNVVDYEDLLFYAYRLFEENKEIRDREAERFLWILVDEFQDTNYVQYKIVEHLSSKHGNILAVGDDAQSIYSFRGARYENVEDFIRVPGTKIFKIQTNYRSTESIVKFINAMLPRKSVPKELKPVKKDGMKPVVVKTWDRYEEARFVSQRILELIEEGFKPEEIAVLYRSHSHSLELQMELVRSRIDFRVLSGPRFTESAHVKDVLSFLRIVQNPRDKSAWLRAAKLFYGIGDRTASKIADLASAYVEEGLDPFQELKKVSFSGEYSRFIDILDQIRKLDSPGEMIERVLSSFYSEYLEARYPDFREREMDLERLVEIASRYTSLESFLTDLAVTENVEIEREISQKEGKVTLTTVHQAKGLEWRVVFVISVNPGDFPNYFAISEGNLDEEERIFYVAITRAKEQLYISYQVTGTSYPYRGNRFIMRSGENFIDRIPLELVEFWEVK
MGSDKIHHHHHHMKFEVASNVLLQHLQLIARVIASRSTLPILESVLFELEGDQLRLTAADMANRMSTELTVNNVGGENGSFAVPERILLEPLKELPDQPISFEINMETKAAEIAYSNGHYSFVVQDVSTYPVAASLSPEAIVSIVPAEALLSGLSATLFATSQDERRPIMTGVYLDFFEDKLVFVGSDGQILVKQEDANVQSRRRSAFCLPRKACLLLRNVLPRLEGDVTLTYDSNYLHIELGNYTLRARLLEGRYPNYNSVIPTSNPFSVKVDRAQLLSGAKRVSIFSNPATSMLRMEFTPAGIRLSANDIDFSVAAEEHVPAECPADINMRIGFKSDVFQTILQGMPSEEVIMTLADQTRAGLILPAENAPGISLCNLLLPMKLIGE
MGSDKIHHHHHHMKFPLLLALLVGGASALHLSSETSDSKSPLMDENLPRDAEISGPEGEECPPGEELMPLEGEKEEGSGSEGVPGDEGAVSGQDVTDVDLQCPKEEDTTSLMGDSGCKTCRYLLVRRAECFDKAQSVCRRCYRGTLASIHSFSVNFGIQSAVRGINQGQVWIGGRIKGWGRCKRFRWVDGSSWNFAYWAAGQPCPGGGRCVTLCTQGGHWRLSHCVKRRPFICSY
MGSDKIHHHHHHMKFSINRQKTIEIIGEYSNILKDNPVKPSLAGLFIQAKNNQVVFKGANTEIELIRYANCEIESEGQVLIKPALLLEYIKLLEGENINFEKKDGYLIVNNAEFSILDDNTYPELTEIIPIVIASENTVKFTMSLEKVKFLTNSSASTDTLFNSIKMIFKDNVLELVSTDSFRLIYMKKELNNMINKDVLVPGDSIAVLYKIFKDLDEEFSLAASDDKLIVTWKDAYFTCKLLSLSFPDFRPLINNTNHDKRFEFNRDELNLALKKVISVTKNSSDSKNVATFNFKGNQLLISGVSANAKINQKVNMIKTGEDLKLGMNCKYIKDFIDNVDKNIIIDATNSSSMLRFMEEGNENYIYLIMPVNIRV
MGSDKIHHHHHHMKGFDAKFRDFPDYIVGITKEIWEDRGIATLHEYYAEDIVVRSPASVVTGNQGVIAATMATLAEFPDRVLLGEDVIWSGTPEDGMLSSHRIISQATHAGDGVYGAATGKRLEYRILADCHAKNNAIDDEWLIRDQTAIVTQLGWTPRDYAADLIMREGGPEACVKPLTPDTDQPGPYKGRGNDNPWGERLADVLTRIMGADMAAIPEVYDRACHLEYPGHVTAHGPAEADRFWMSLRAAFPNAAFTIDHQIGREDDHMPPRAAIRWSLHGTHEGWGGFGQPTGAEVYIVGITHAEFGQVGTAEPKLRREYTLFDETSVWKQILLHEAAK
